Measurements from US20220096653A1, “CONJUGATE COMPRISING LIGAND AND CEACAM5 ANTIBODY FAB FRAGMENT” (ASTELLAS PHARMA INC., priority 2019, published 2022).
Like-named read-outs stand apart in the source and are kept apart here.

How the values were obtained:
[1] = target: human cancer-specific MUC1 peptide (PTL 1) (human); experiment: ELISA on immobilised human cancer-specific MUC1 peptide, 4-parameter fit, duplicate (Example 6-1)
[2] = target: human cancer-specific MUC1 peptide (PTL 1) (human); experiment: ELISA on immobilised human cancer-specific MUC1 peptide, 4-parameter fit, duplicate (Example 6-2)
[3] = target: human cancer-specific MUC1 peptide (Homo sapiens, UniProt P15941); experiment: ELISA binding activity of anti-human MUC1 antibody Fab^5 fragment conjugates (Example 6-2)
Chain of human cancer-specific MUC1 peptide (Homo sapiens, UniProt P15941) (P15941 136-155): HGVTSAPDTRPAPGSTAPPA
Experimental: (§1) Each anti-human MUC1 antibody Fab^5 fragment conjugate prepared by the method of Example 5 was subjected to ELISA to evaluate the binding activity thereof to human cancer-specific MUC1. In the present test, 20×PBS/Tween 20 Buffer (Thermo Fisher Scientific Inc., 28352) diluted 20-fold with distilled water was used as a wash liquid. In addition, for bovine serum albumin (BSA) used in the present test, 30% Bovine Serum Albumin solution (Sigma-Aldrich, Inc., A9576-50ML) was added in an appropriate proportion for use. A human cancer-specific MUC1 peptide (PTL 1) at 0.5 μmol/L was added to a Nunc MaxiSorp White 384 plate (Nunc, 460372) at 30 μL per well, and the plate was incubated overnight at 4° C. for immobilization. The MUC1 peptide was removed by reverse centrifugation, and then blocking was carried out by adding a PBS/Tween 20 buffer containing 5.0% BSA. Thereafter, the blocking solution was removed by reverse centrifugation, a solution of each anti-human MUC1 antibody Fab^5 fragment conjugate (Ex-No. 101-113) described above at about 10000 ng/mL was diluted in 14 steps by 3-fold dilution using a PBS/Tween 20 buffer containing 1.0% BSA, and 30 μL was added per well and incubated at room temperature for 60 minutes. The plate was washed 3 times with a PBS/Tween 20 buffer, and Horseradish Peroxidase-labeled goat anti-human IgK antibody (Southern Biotechnology Associates, Inc.) diluted 10000-fold using a PBS/Tween 20 buffer containing 5.0% BSA was added at 30 μL per well and incubated at room temperature for 30 minutes. The plate was washed 3 times with a PBS/Tween 20 buffer, and ECL Prime Western Blotting DETECTION Reagent (GE Healthcare, RPN2232) as a substrate was added at 30 μL per well. The substrate was incubated at room temperature for 15 minutes, and then a signal value thereof was measured using an Envision counter (PerkinElmer, Inc.).
(§2) The test for each antibody was carried out in duplicate, and the EC50 value was calculated using a 4-parameter logistic curve model.

[4] = target: human cancer-specific MUC1 peptide; experiment: ELISA binding activity of anti-human MUC1 antibody Fab^5 fragment conjugates (Example 6-1); conditions: EC50 value for each of 3 runs; Table 51; read-out: EC50 P10-2
Experimental: as §1, with “104, 108, or 112)” for “101-113)”
as §2

[5] = each conjugate run in duplicate, Table 54, read-out: EC50

Molecule	EC50 [1]	EC50 [3, 5]	also measured
[Gd/DOTA-NH-CH2-(1,4-Ph)-NH-C(═O)-Met-Ile-NH-(CH2)2-(A-4 and/or A-5)]p-Fab^5 (Fab, V domains shown, labeling may sit on this chain; sites not stated; labeling portion (MW 1092) on amino groups of the Fab, sites and chain not stated; 1-3 per Fab by MS; Gln 1 pyroglutamic acid as Fab^5 is defined in paragraph 370) VH: QVQLVQSGAEVKKPGASVKVSCKASGYTFTNYGLSWVRQAPGQGLEWMGENHPGSGIIYHNEKFRGRVTLTADRSTSTAYMELSSLRSEDTAVYYCARSSGTRGFDYWGQGTLVTVSS VL: DVVMTQTPLSLSVTPGQPASISCRSSQSIVHSNGNTYLEWYLQKPGQSPQLLIYRVSNRFSGVPDRFSGSGSGTDFTLKISRVEAEDVGVYYCFQGSHGPWTFGQGTKLEIKR	0.08 nM	–	–
Ex-No 108, conjugate of Fab^5 without peptide linker (structure given only as drawing CHEM-US-00165) (Fab, V domains shown, labeling may sit on this chain; sites not stated; low molecular weight molecule (MW 542) bound to the Fab, sites and chain not stated; 1-3 per Fab by MS; Gln 1 pyroglutamic acid as Fab^5 is defined in paragraph 370) VH: QVQLVQSGAEVKKPGASVKVSCKASGYTFTNYGLSWVRQAPGQGLEWMGENHPGSGIIYHNEKFRGRVTLTADRSTSTAYMELSSLRSEDTAVYYCARSSGTRGFDYWGQGTLVTVSS VL: DVVMTQTPLSLSVTPGQPASISCRSSQSIVHSNGNTYLEWYLQKPGQSPQLLIYRVSNRFSGVPDRFSGSGSGTDFTLKISRVEAEDVGVYYCFQGSHGPWTFGQGTKLEIKR	0.07 nM	–	EC50 [2]: 0.07 nM
[Gd/DOTA-NH-CH2-(1,4-Ph)-NH-C(═O)-Met-Ile-NH-(CH2)2-(A-3)]p-Fab^5 (Fab, V domains shown, labeling may sit on this chain; sites not stated; labeling portion (MW 1187) on amino groups of the Fab, sites and chain not stated; 1-2 per Fab by MS; Gln 1 pyroglutamic acid as Fab^5 is defined in paragraph 370) VH: QVQLVQSGAEVKKPGASVKVSCKASGYTFTNYGLSWVRQAPGQGLEWMGENHPGSGIIYHNEKFRGRVTLTADRSTSTAYMELSSLRSEDTAVYYCARSSGTRGFDYWGQGTLVTVSS VL: DVVMTQTPLSLSVTPGQPASISCRSSQSIVHSNGNTYLEWYLQKPGQSPQLLIYRVSNRFSGVPDRFSGSGSGTDFTLKISRVEAEDVGVYYCFQGSHGPWTFGQGTKLEIKR	0.15 nM	–	–
P10-2: anti-human MUC1 antibody Fab fragment disclosed in International Publication WO2018/092885; heavy chain fragment SEQ ID NO: 8, light chain SEQ ID NO: 10 (antibody, P10-2 Fab heavy chain fragment; Antibody light chain) heavy: QVQLVQSGAEVKKPGASVKVSCKASGYTFTNYGLSWVRQAPGQGLEWMGENHPGSGIIYHNEKFRGRVTLTADRSTSTAYMELSSLRSEDTAVYYCARSSGTRGFDYWGQGTLVTVSSASTKGPSVFPLAPSSKSTSGGTAALGCLVKDYFPEPVTVSWNSGALTSGVHTFPAVLQSSGLYSLSSVVTVPSSSLGTQTYICNVNHKPSNTKVDKKVEPKSCD light: DVVMTQTPLSLSVTPGQPASISCRSSQSIVHSNGNTYLEWYLQKPGQSPQLLIYRVSNRFSGVPDRFSGSGSGTDFTLKISRVEAEDVGVYYCFQGSHGPWTFGQGTKLEIKRTVAAPSVFIFPPSDEQLKSGTASVVCLLNNFYPREAKVQWKVDNALQSGNSQESVTEQDSKDSTYSLSSTLTLSKADYEKHKVYACEVTHQGLSSPVTKSFNRGEC	–	–	EC50 ([3]; EC50 value for each of 3 runs, Table 53, read-out: EC50 P10-2): 0.06 nM; EC50 [4]: 0.06 nM
[Gd/DOTA-[2,5-(1,2,3,4-tetrahydroisoquinoline)]-C(═O)-Met-Gly-Lys*-C(═S)—NH-(1,4-Ph)-NH—C(═S)]p-Fab^5 (conjugate, non-natural residues) heavy: QVQLVQSGAEVKKPGASVKVSCKASGYTFTNYGLSWVRQAPGQGLEWMGENHPGSGIIYHNEKFRGRVTLTADRSTSTAYMELSSLRSEDTAVYYCARSSGTRGFDYWGQGTLVTVSSASTKGPSVFPLAPSSKSTSGGTAALGCLVKDYFPEPVTVSWNSGALTSGVHTFPAVLQSSGLYSLSSVVTVPSSSLGTQTYICNVNHKPSNTKVDKKVEPKSCD light: DVVMTQTPLSLSVTPGQPASISCRSSQSIVHSNGNTYLEWYLQKPGQSPQLLIYRVSNRFSGVPDRFSGSGSGTDFTLKISRVEAEDVGVYYCFQGSHGPWTFGQGTKLEIKRTVAAPSVFIFPPSDEQLKSGTASVVCLLNNFYPREAKVQWKVDNALQSGNSQESVTEQDSKDSTYSLSSTLTLSKADYEKHKVYACEVTHQGLSSPVTKSFNRGEC	–	0.19 nM	–
[Gd/DOTA-NH—CH2-(1,4-Ph)-NH—C(═O)-Met-Ile-NH—(CH2)2—Z1(#N)]p-Fab^5 (conjugate, non-natural residues) heavy: QVQLVQSGAEVKKPGASVKVSCKASGYTFTNYGLSWVRQAPGQGLEWMGENHPGSGIIYHNEKFRGRVTLTADRSTSTAYMELSSLRSEDTAVYYCARSSGTRGFDYWGQGTLVTVSSASTKGPSVFPLAPSSKSTSGGTAALGCLVKDYFPEPVTVSWNSGALTSGVHTFPAVLQSSGLYSLSSVVTVPSSSLGTQTYICNVNHKPSNTKVDKKVEPKSCD light: DVVMTQTPLSLSVTPGQPASISCRSSQSIVHSNGNTYLEWYLQKPGQSPQLLIYRVSNRFSGVPDRFSGSGSGTDFTLKISRVEAEDVGVYYCFQGSHGPWTFGQGTKLEIKRTVAAPSVFIFPPSDEQLKSGTASVVCLLNNFYPREAKVQWKVDNALQSGNSQESVTEQDSKDSTYSLSSTLTLSKADYEKHKVYACEVTHQGLSSPVTKSFNRGEC	–	0.08 nM	–
